The assay deals with T1, 新型冠状病毒S1蛋白 (纯化) (SARS-CoV-2, UniProt P0DTC2 14-685).
T1 construct: domain: S1
The assay is described as follows: SPR, BIAcore 8000, purified S1 protein coupled to the chip, 1:1 binding fit. A general note: SPR reads the build-up and loss of mass on a sensor chip optically.

The values below come from patent CN112341541A (INST FOR VIRAL DISEASE CONTROL AND PREVENTION CHINESE …, dated 2021).

B1: 人源抗新冠病毒中和性抗体nCoV-163 全抗体IgG (antibody, V domains shown)
VH: EVQLVESGGGLVQPGGSLRLSCEASEIIVNRNYMNWVRQAPGKGLEWVSIIYPGGSTFYADSVKGRFTISRDNSKNTMYLQMNSLRAEDTAVYYCARSYGDFYVDFWGQGTLVTVSS
VL: EIVLTQSPVTLSLSPGERATLSCRASQSVSSSYLAWYQQKPGQAPRLLIYGASSRATGIPDRFSGSGSGTDFTLTISRLEPEDFAVYYCQQHGRTFGQGTKVEIKR
notes: also called nCoV-163号抗体
Consider B1, for which the Kd was under 4.88 pM.

In general, Kd refers to a measure of binding affinity in units of concentration. Low values mean tighter binding, high ones weaker binding.
